# In patent publication US20200407452A1 (published 2020):
# B1: 71G3 llama-mouse chimeric mAb (mouse IgG1/lambda) (antibody, V domains shown)
# VH: QVQLVESGGGLVQPGGSLRVSCAASGFTFSTYYMSWVRQAPGKGLEWVSDIRTDGGTYYADSVKGRFTMSRDNAKNTLYLQMNSLKPEDTALYYCARTRIFPSGYDYWGQGTQVTVSS
# VL: QAVVTQEPSLSVSPGGTVTLTCGLSSGSVTTSNYPGWFQQTPGQAPRTLIYNTNSRHSGVPSRFSGSISGNKAALTIMGAQPEDEADYYCSLYPGSTTVFGGGTHLTVLG
# B2: recombinant mouse HGF (R&D Systems) (ligand, UniProt Q08048 33-728, looked up)
# chain: QKKRRNTLHEFKKSAKTTLTKEDPLLKIKTKKVNSADECANRCIRNRGFTFTCKAFVFDKSRKRCYWYPFNSMSSGVKKGFGHEFDLYENKDYIRNCIIGKGGSYKGTVSITKSGIKCQPWNSMIPHEHSFLPSSYRGKDLQENYCRNPRGEEGGPWCFTSNPEVRYEVCDIPQCSEVECMTCNGESYRGPMDHTESGKTCQRWDQQTPHRHKFLPERYPDKGFDDNYCRNPDGKPRPWCYTLDPDTPWEYCAIKTCAHSAVNETDVPMETTECIQGQGEGYRGTSNTIWNGIPCQRWDSQYPHKHDITPENFKCKDLRENYCRNPDGAESPWCFTTDPNIRVGYCSQIPKCDVSSGQDCYRGNGKNYMGNLSKTRSGLTCSMWDKNMEDLHRHIFWEPDASKLNKNYCRNPDDDAHGPWCYTGNPLIPWDYCPISRCEGDTTPTIVNLDHPVISCAKTKQLRVVNGIPTQTTVGWMVSLKYRNKHICGGSLIKESWVLTARQCFPARNKDLKDYEAWLGIHDVHERGEEKRKQILNISQLVYGPEGSDLVLLKLARPAILDNFVSTIDLPSYGCTIPEKTTCSIYGWGYTGLINADGLLRVAHLYIMGNEKCSQHHQGKVTLNESELCAGAEKIGSGPCEGDYGGPLICEQHKMRMVLGVIVPGRGCAIPNRPGIFVRVAYYAKWIHKVILTYKL
# modifications: biotinylated at the N-terminus using NHS-LC-biotin (in the competition ELISA only)
# B3: 72F8 chimeric llama-human IgG1 mAb (antibody, V domains shown)
# VH: ELQLVESGGGLVQPGGSLRLSCAASGFTFSNYVMSWVRQAPGKGLEWVSDTNSGGSTSYADSVKGRFTISRDNAKNTLYLQMNSLKPEDTALYYCARSFFYGMNYWGKGTQVTVSS
# VL: QSALTQPPSLSASPGSSVRLTCTLSSGNNIGSYDISWYQQKAGSPPRYLLNYYTDSRKHQDSGVPSRFSGSKDASANAGLLLISGLQPEDEADYYCSAYKSGSYRWVFGGGTHVTVL
# notes: human IgG1 CH1-CH2-CH3 and human CL lambda
# B4: 71C3 chimeric llama-human IgG1 mAb (antibody, V domains shown)
# VH: QLQLVESGGGLVQPGGSLRLSCAASGFTFSSHAMSWVRQAPGKGLEWVSAINSGGGSTSYADSVKGRFTISRDNAKNTLYLQMNSLKPEDTAVYYCAKELRFDLARYTDYEAWDYWGQGTQVTVSS
# VL: SYELTQPSALSVTLGQTAKITCQGGSLGSSYAHWYQQKPGQAPVLVIYDDDSRPSGIPERFSGSSSGGTATLTISGAQAEDEGDYYCQSADSSGNAAVFGGGTHLTVL
# notes: as for B3
# B5: 71D4 chimeric llama-human IgG1 mAb (antibody, V domains shown)
# VH: ELQLVESGGGLVQPGGSLRLSCAASGFTFSGYGMSWVRQAPGKGLEWVSDINSGGGSTSYADSVKGRFTISRDNAKNTLYLQMNSLKPEDTAVYYCAKDMRLYLARYNDYEAWDYWGQGTQVTVSS
# VL: SSALTQPSALSVTLGQTAKITCQGGSLGSSYAHWYQQKPGQAPVLVIYDDDSRPSGIPERFSGSSSGGTATLTISGAQAEDEGDYYCQSADSSGNAAVFGGGTHLTVL
# notes: as for B3
# B6: 71G12 chimeric llama-human IgG1 mAb (antibody, V domains shown)
# VH: QVQLQESGGDLVQPGGSLRVSCVVSGFTFSRYYMSWVRQAPGKGLEWVSSIDSYGYSTYYTDSVKGRFTISRDNAKNTLYLQMNSLKPEDTALYYCARAKTTWSYDYWGQGTQVTVSS
# VL: EIVLTQSPSSVTASVGGKVTINCKSSQSVFIASNQKTYLNWYQQRPGQSPRLVISYASTRESGIPDRFSGSGSTTDFTLTISSVQPEDAAVYYCQQAYSHPTFGQGTKVELK
# notes: human IgG1 CH1-CH2-CH3 and human CL kappa
# B7: 74C8 chimeric llama-human IgG1 mAb (antibody, V domains shown)
# VH: EVQLVESGGGLVQPGGSLRLSCAASGFTFRNYHMSWVRQVPGKGFEWISDINSAGGSTYYADSVKGRFTISRDNAKNTLYLEMNSLKPEDTALYYCARVNVWGVNYWGKGTLVSVSS
# VL: QTVVTQEPSLSVSPGGTVTLTCGLSSGSVTTSNYPGWFQQTPGQAPRTLIYNTNSRHSGVPSRFSGSISGNKAALTITGAQPEDEADYYCSLYPGSYTNVFGGGTHLTVL
# notes: as for B3
# B8: 71G2 llama-mouse chimeric mAb (mouse IgG1/lambda) (antibody, V domains shown)
# VH: EVQLQESGGGLVQPGGSLRLSCAASGFTFSIYDMSWVRQAPGKGLEWVSTINSDGSSTSYVDSVKGRFTISRDNAKNTLYLQMNSLKPEDTAVYYCAKVYGSTWDVGPMGYGMDYWGKGTLVTVSS
# VL: SSALTQPSALSVSLGQTARITCQGGSLGSSYAHWYQQKPGQAPVLVIYGDDSRPSGIPERFSGSSSGGTATLTISGAQAEDEDDYYCQSTDSSGNTVFGGGTRLTVLG
# B9: 76G7 chimeric llama-human IgG1 mAb (antibody, V domains shown)
# VH: QVQLVESGGNLVQPGGSLRLSCAASGFTFSNYYMSWVRQAPGKGLEWVSDIYSDGSTTWYSDSVKGRFTISRDNAKNTLSLQMNSLKSEDTAVYYCARVKIYPGGYDAWGQGTQVTVSS
# VL: QAGLTQPPSVSGSPGKTVTISCAGNSSDVGYGNYVSWYQQFPGMAPKLLIYLVNKRASGITDRFSGSKSGNTASLTISGLQSEDEADYYCASYTGSNNIVFGGGTHLTVL
# notes: as for B3
# How the values were obtained:
# [1] = target: T1, native mouse MET on living cells (mouse, UniProt P16056 25-1379); assay: cell-based or functional assay
# [2] = target: T2, native human MET on living cells (human, UniProt P08581 25-1390); assay: cell-based or functional assay
# [3] = target: T1, native mouse MET on living cells; assay: cell-based or functional assay; remark: listed apart in the source
# [4] = target: T1, native mouse MET on living cells; assay: cell-based or functional assay; remark: listed apart in the source
# [5] = target: T3, human MET ECD (human, UniProt P08581 25-932); assay: ELISA, MET ECD coated, mAb 0-20 nM
# T3 construct: range 1-932; recombinant; range as printed includes the signal peptide; also called hMET; hMET ECD
# Experimental: (§1) Production (by transient transfection of mammalian cells) and purification (by protein A affinity chromatography) of the resulting chimeric llama-human IgG1 molecules was outsourced to U-protein Express. Binding of chimeric mAbs to MET was determined by ELISA using hMET or mMET ECD in solid phase and increasing concentrations of antibodies (0-20 nM) in solution. […] Binding capacity (EMAX) varied from antibody to antibody, possibly due to partial epitope exposure in the immobilized antigen, but was similar in the human and mouse setting.
# [6] = target: T4, mouse MET ECD (mouse, UniProt P16056 25-931); assay: ELISA, MET ECD coated, mAb 0-20 nM
# T4 construct: range 1-931; recombinant; range as printed includes the signal peptide; also called mMET; mMET ECD
# Experimental: as §1
# [7] = target: T2, native human MET on living cells; assay: cell-based or functional assay; remark: listed apart in the source
# [8] = target: T2, native human MET on living cells; assay: cell-based or functional assay; remark: listed apart in the source
# [9] = target: T3, human MET ECD; assay: ELISA, WT or mutant hMET ECD coated
# Experimental: Using human MET as a template, we mutagenized each of these residues in different permutations, generating a series of MET mutants that are fully human except for specific residues, which are llama. Next, we tested the affinity of selected SEMA-binding mAbs (71D6, 71C3, 71D4, 71A3, 71G2) and PSI-binding mAbs (76H10 and 71G3) for these MET mutants by ELISA. To this end, the various MET proteins were immobilized in solid phase (100 ng/well in a 96-well plate) and then exposed to increasing concentrations of antibodies (0-50 nM) solution. […] Wild-type human MET was used as positive control.
# TABLE 24 The epitopes of MET responsible for agonistic antibody binding represent residues conserved among H. sapiens, M. musculus, R. norvegicus, M. fascicularis but not among the same species and L. glama. The relevance of residues conserved among human, mouse, rat, cynomolgus monkey but not llama MET for binding to agonistic mAbs was tested by ELISA. Wild-type (WT) or mutant (MT) human MET ECD was immobilized in solid phase and exposed to increasing concentrations of mAbs in solution. […] All binding values were normalized to the WT protein and are expressed as % binding (EMAX) compared to WT MET.
# [10] = target: human MET ECD mutant A (mutations 1, 2, 3) (human) (UniProt P08581); assay: ELISA, WT or mutant hMET ECD coated
# [11] = target: human MET ECD mutant H (mutations 2, 4) (human) (UniProt P08581); assay: ELISA, WT or mutant hMET ECD coated
# [12] = target: human MET ECD mutant E (mutations 2, 3, 4) (human) (UniProt P08581); assay: ELISA, WT or mutant hMET ECD coated
# [13] = target: human MET ECD mutant D (mutations 1, 2) (human) (UniProt P08581); assay: ELISA, WT or mutant hMET ECD coated
Binder,MLP29 br. m. (branch n.) [1] [branches per spheroid],LOC br. m. (branch n.) [2] [branches per spheroid],"phospho-MET ELISA EMAX, MLP29 cells [3] [% HGF activity]","protection from staurosporine-induced apoptosis EC50, MLP29 cells [4] [nM]","protection from staurosporine-induced apoptosis EMAX, MLP29 cells [4] [%]",EMAX [5] [OD450 AU],EMAX [6] [OD450 AU],"phospho-MET ELISA EMAX, A549 cells [7] [% HGF activity]","protection from staurosporine-induced apoptosis EC50, MCF10A cells [8] [nM]","protection from staurosporine-induced apoptosis EMAX, MCF10A cells [8] [%]",% binding (EMAX) vs WT MET ECD [9] [%],% binding (EMAX) vs WT MET ECD [10] [%],% binding (EMAX) vs WT MET ECD [11] [%],% binding (EMAX) vs WT MET ECD [12] [%],% binding (EMAX) vs WT MET ECD [13] [%]
B1,30.1,20.8,,,,,,,,,,,,,
B2,,,100,5.35,58.6,,,,,,,,,,
B3,,,66.8,> 32,43.8,2.78,2.9,69.7,> 32,35.8,,,,,
B4,,,98.8,31,51.3,2.46,2.24,86.2,31.9,50.2,100,99.8,61.6,59.6,102
B5,,,95.3,29.8,52.1,1.43,1.17,84.6,30.2,51.7,100,114,58.7,57.2,120
B6,,,75.4,> 32,39.7,3.08,2.97,70.6,> 32,39.4,,,,,
B7,,,102,> 32,37.5,0.994,0.896,87.6,> 32,41.7,,,,,
B8,41.2,29.8,,,,,,,,,,,,,
B9,,,71.5,30.1,50.2,2.62,2.78,62.3,25.4,51.9,,,,,
